Results: patent publication US20120244577A1 (Zymeworks, published 2012)

Target: the molecule itself
Assay: co-expression in CHO-3E7, gel analysis (FIG. 6)
Procedure: High level and high-throughput recombinant protein production by transient transfection of suspension-growing […] CHO-3E7 was performed. See Table 3 for construct boundaries of the two scaffolds described here: Albumin based heteromultimer 1 (ABH1) and Albumin based heteromultimer 2 (ABH2). Albumin based heteromultimer 2 comprises one disulfide bond between the two transporter polypeptides, while Albumin based heteromultimer 1 is formed entirely by non-covalent interactions. FIG. 6A provides SDS-PAGE (non-reducing) gel analysis of the two heteromultimer constructs (ABH1 and ABH2), after co-expression (different DNA transfection ratios are shown). WT full-length HSA is shown as control. As expected, ABH2 retains the disulfide linkage in non-reducing SDS-PAGE, with a MW roughly double the non-disulfide linked ABH1. FIG. 6B provides Native gel analysis of the two Albumin based heteromultimer constructs (ABH1 and ABH2), after co-expression (1:1 DNA level). WT full-length HSA is shown as control. […]
WT-HSA and the two Albumin based heteromultimers (ABH1 and ABH2) were expressed in CHO-3E7 cell line grown in suspension in FreeStyle F17 medium (Invitrogen) supplemented with 0.1% w/v pluronic and 4 mM glutamine. […] At 24-48 hours, GFP positive cells should be between 30-60% as determined by flow cytometry.

B1: Albumin based Transporter polypeptide 1-Ver 1 (other)
chain: DAHKSEVAHRFKDLGEENFKALVLIAFAQYLQQCPFEDHVKLVNEVTEFAKTCVADESAENCDKSLHTLFGDKLCTVATLRETYGEMADCCAKQEPERNECFLQHKDDNPNLPRLVRPEVDVMCTAFHDNEETFLKKYLYEIARRHPYFYAPELLFFAKRYKAAFTECCQAADKAACLLPKLDELRDEGKASSAKQRLKCASLQKFGERAFKAWAVARLSQRFPKAEFAEVSKLVTDLTKVHTECCHGDLLECADDRADLAKYICENQDSISSKLKECCEKPLLEKSHCIAEV
notes: also called ABH1 segment 1:293
B1: no binding.

B2: Albumin based Transporter polypeptide 1-Ver 2 (other)
chain: DAHKSEVAHRFKDLGEENFKALVLIAFAQYLQQCPFEDHVKLVNEVTEFAKTCVADESAENCDKSLHTLFGDKLCTVATLRETYGEMADCCAKQEPERNECFLQHKDDNPNLPRLVRPEVDVMCTAFHDNEETFLKKYLYEIARRHPYFYAPELLFFAKRYKAAFTECCQAADKAACLLPKLDELRDEGKASSAKQRLKCASLQKFGERAFKAWAVARLSQRFPKAEFAEVSKLVTDLTKVHTECCHGDLLECADDRADLAKYICENQDSISSKLKECCEKPLLEKSHCIAEVENDEMPADLPSLAADFVESKDVCKNYAEAKDVFLGMFLYEYARA
notes: First chain of ABH2; also called F1; ABH2 segment 1:337
B2: no binding.
